pKd: −log10 of the molar value.

Usually pKd stands for the negative decadic logarithm of the Kd, by convention in mol/L.

Assay [1] has as its target Recombinant human IFN-α/β R2-Fc chimera (human) (UniProt P48551).
The target is the same in assay [2]. The experiment in a line: SPR; BIAcore T-100; human IFNR2-Fc captured on a CM5 chip by an immobilized anti-human IgG Fc antibody; Nova or IFN-α2b in the solution phase; binding measured under equilibrium conditions. In general terms: Surface plasmon resonance follows binding to a sensor surface in real time, without labels.

Sequence of UniProt P48551 (P48551 27-243, change not shown): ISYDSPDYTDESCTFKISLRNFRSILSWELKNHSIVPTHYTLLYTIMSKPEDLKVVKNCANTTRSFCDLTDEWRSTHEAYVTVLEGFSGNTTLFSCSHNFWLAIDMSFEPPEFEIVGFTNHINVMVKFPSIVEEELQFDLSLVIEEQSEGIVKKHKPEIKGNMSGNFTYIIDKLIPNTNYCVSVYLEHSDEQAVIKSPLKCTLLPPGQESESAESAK

Consider Novaferon (ligand), for which, in assay [1], the anti-tumor activity against Daudi cell lines (MTT anti-proliferative assay) was 2.74e+10 U/mg and the anti-virus activity, WISH/VSV system (cytopathic effect reduction assay) is 1.34e+09. In assay [2], the pKd was 10.91.
